B1: His-MinD (B. subtilis MinD, N-terminally His-tagged) [B. subtilis] / itself (parent)
chain: MGEAIVITSGKGGVGKTTTSANLGTALAILGKRVCLVDTDIGLRNLDVVMGLENRIIYDLVDVVEGRCKMHQALVKDKRFDDLLYLMPAAQTSDKTAVAPEQIKNMVQELKQEFDYVIIDCPAGIEQGYKNAVSGADKAIVVTTPEISAVRDADRIIGLLEQEENIEPPRLVVNRIRNHLMKNGDTMDIDEIVQHLSIDLLGIVADDDEVIKASNHGEPIAMDPKNRASIAYRNIARRILGESVPLQVLEEQNKGMMAKIKSFFGVRS

Variants of: B1
Assay: gel filtration (size-exclusion chromatography), self-association
Settings: with itself; purification buffers supplied with excess Mg2+-ADP; read off a plot
With MGEAIVITSGKGGVGATTTSANLGTALAILGKRVCLVDTDIGLRNLDVVMGLENRIIYDLVDVVEGRCKMHQALVKDKRFDDLLYLMPAAQTSDKTAVAPEQIKNMVQELKQEFDYVIIDCPAGIEQGYKNAVSGADKAIVVTTPEISAVRDADRIIGLLEQEENIEPPRLVVNRIRNHLMKNGDTMDIDEIVQHLSIDLLGIVADDDEVIKASNHGEPIAMDPKNRASIAYRNIARRILGESVPLQVLEEQNKGMMAKIKSFFGVRS [chain 1 K16A] the elution volume was 15.7 mL. MGEAIVITSGKVGVGKTTTSANLGTALAILGKRVCLVDTDIGLRNLDVVMGLENRIIYDLVDVVEGRCKMHQALVKDKRFDDLLYLMPAAQTSDKTAVAPEQIKNMVQELKQEFDYVIIDCPAGIEQGYKNAVSGADKAIVVTTPEISAVRDADRIIGLLEQEENIEPPRLVVNRIRNHLMKNGDTMDIDEIVQHLSIDLLGIVADDDEVIKASNHGEPIAMDPKNRASIAYRNIARRILGESVPLQVLEEQNKGMMAKIKSFFGVRS [chain 1 G12V] was tested, and the elution volume was 16.1 mL. MGEAIVITSGKGGVGKTTTSANLGTALAILGKRVCLVDTAIGLRNLDVVMGLENRIIYDLVDVVEGRCKMHQALVKDKRFDDLLYLMPAAQTSDKTAVAPEQIKNMVQELKQEFDYVIIDCPAGIEQGYKNAVSGADKAIVVTTPEISAVRDADRIIGLLEQEENIEPPRLVVNRIRNHLMKNGDTMDIDEIVQHLSIDLLGIVADDDEVIKASNHGEPIAMDPKNRASIAYRNIARRILGESVPLQVLEEQNKGMMAKIKSFFGVRS [chain 1 D40A] gave an elution volume of 15.8 mL.
